Laboratory results: patent publication US20210030836A1 (SHANGHAI INSTITUTE OF NUTRITION AND HEALTH CHINESE ACADEMY …, published 2021)

Biological target: T1, ATM, phosphorylated (activated) (human, UniProt Q13315 2-3056, phosphorylated (activated state; site not given))
T1 construct: Endogenous protein co-immunoprecipitated from PSC27 cell lysates; also called p-ATM
Assay: IP with p-TAK1 antibody from lysates of bleomycin-treated PSC27 cells, Western blot (FIG. 2)

T1 sequence (Q13315 2-3056 limits assumed): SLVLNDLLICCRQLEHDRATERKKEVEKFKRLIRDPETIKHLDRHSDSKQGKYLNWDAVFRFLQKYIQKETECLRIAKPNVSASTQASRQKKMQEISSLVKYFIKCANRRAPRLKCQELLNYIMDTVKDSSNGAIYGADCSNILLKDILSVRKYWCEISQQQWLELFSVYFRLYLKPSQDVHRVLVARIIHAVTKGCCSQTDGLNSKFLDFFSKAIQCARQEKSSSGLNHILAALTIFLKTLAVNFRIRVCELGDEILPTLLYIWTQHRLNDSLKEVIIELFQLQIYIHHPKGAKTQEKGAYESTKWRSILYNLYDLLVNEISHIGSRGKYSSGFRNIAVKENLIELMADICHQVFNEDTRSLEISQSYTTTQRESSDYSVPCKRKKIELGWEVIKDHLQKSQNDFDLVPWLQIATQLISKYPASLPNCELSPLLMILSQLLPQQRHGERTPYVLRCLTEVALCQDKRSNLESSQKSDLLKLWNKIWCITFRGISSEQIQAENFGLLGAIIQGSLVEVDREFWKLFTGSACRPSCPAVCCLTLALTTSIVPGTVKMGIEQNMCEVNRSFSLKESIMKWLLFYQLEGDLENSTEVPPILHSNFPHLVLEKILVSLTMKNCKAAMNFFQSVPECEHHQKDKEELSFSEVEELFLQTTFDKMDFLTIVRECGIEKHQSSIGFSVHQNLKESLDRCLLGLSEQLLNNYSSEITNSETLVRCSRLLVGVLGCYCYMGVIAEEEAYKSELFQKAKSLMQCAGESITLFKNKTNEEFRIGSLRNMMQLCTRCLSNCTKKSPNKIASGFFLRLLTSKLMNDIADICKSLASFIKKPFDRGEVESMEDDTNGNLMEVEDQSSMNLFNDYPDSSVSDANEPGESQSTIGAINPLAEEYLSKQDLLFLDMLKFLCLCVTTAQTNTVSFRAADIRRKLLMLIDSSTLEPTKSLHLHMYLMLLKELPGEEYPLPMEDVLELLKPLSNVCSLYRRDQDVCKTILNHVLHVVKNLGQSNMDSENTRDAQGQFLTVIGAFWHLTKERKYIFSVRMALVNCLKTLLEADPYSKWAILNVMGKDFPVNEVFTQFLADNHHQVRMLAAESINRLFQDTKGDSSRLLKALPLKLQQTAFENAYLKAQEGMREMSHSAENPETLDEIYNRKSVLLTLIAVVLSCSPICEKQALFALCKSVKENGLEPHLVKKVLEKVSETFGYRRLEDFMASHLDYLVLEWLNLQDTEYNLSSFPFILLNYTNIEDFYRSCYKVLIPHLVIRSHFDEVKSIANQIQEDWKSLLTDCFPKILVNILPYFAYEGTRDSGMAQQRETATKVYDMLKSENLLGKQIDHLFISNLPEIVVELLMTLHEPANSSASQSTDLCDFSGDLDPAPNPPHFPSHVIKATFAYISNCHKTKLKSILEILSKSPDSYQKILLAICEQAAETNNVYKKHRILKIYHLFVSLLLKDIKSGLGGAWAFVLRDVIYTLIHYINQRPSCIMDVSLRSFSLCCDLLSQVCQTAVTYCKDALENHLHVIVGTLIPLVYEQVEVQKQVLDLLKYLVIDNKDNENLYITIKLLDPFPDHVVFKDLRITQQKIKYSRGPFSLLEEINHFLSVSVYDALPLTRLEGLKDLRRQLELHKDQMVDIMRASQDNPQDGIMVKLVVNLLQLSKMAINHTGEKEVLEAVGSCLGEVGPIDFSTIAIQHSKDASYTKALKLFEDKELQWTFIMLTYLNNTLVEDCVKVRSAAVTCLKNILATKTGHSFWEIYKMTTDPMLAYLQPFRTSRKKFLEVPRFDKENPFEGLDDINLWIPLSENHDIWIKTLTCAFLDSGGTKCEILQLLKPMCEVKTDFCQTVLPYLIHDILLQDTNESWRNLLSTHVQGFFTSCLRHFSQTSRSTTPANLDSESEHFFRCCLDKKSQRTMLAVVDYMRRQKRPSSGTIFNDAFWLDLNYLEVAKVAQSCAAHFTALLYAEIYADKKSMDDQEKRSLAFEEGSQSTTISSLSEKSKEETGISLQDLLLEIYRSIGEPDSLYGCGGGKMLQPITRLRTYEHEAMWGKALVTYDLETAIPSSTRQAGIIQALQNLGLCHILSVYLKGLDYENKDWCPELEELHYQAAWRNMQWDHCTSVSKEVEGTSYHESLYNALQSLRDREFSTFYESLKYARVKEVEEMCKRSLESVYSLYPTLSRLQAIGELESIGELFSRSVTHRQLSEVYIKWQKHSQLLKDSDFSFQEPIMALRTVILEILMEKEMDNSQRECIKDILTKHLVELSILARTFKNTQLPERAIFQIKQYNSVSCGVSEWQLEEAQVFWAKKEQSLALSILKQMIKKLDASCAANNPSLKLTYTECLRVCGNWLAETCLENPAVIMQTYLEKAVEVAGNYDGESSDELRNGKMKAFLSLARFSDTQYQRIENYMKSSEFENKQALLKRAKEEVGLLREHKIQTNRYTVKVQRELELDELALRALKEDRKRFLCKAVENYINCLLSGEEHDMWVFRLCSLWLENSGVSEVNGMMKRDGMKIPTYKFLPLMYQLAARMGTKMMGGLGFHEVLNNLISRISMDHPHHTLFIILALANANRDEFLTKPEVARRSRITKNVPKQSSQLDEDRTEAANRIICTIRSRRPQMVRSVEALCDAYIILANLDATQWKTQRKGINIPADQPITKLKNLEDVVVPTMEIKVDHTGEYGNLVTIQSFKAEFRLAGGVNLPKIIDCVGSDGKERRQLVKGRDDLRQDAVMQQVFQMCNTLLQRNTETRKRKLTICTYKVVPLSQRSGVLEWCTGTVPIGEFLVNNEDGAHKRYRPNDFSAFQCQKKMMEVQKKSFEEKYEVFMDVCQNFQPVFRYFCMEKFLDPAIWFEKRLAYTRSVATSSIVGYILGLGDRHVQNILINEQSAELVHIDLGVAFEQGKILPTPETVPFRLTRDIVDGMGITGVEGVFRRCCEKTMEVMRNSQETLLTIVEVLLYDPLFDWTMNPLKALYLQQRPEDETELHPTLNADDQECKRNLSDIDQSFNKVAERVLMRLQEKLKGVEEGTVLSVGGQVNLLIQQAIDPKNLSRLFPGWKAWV

binding result: no binding
B1: Transforming growth factor kinase 1 (TAK1), phosphorylated (activated) (enzyme, human, UniProt O43318 1-606, looked up)
chain: MSTASAASSSSSSSAGEMIEAPSQVLNFEEIDYKEIEVEEVVGRGAFGVVCKAKWRAKDVAIKQIESESERKAFIVELRQLSRVNHPNIVKLYGACLNPVCLVMEYAEGGSLYNVLHGAEPLPYYTAAHAMSWCLQCSQGVAYLHSMQPKALIHRDLKPPNLLLVAGGTVLKICDFGTACDIQTHMTNNKGSAAWMAPEVFEGSNYSEKCDVFSWGIILWEVITRRKPFDEIGGPAFRIMWAVHNGTRPPLIKNLPKPIESLMTRCWSKDPSQRPSMEEIVKIMTHLMRYFPGADEPLQYPCQYSDEGQSNSATSTGSFMDIASTNTSNKSDTNMEQVPATNDTIKRLESKLLKNQAKQQSESGRLSLGASRGSSVESLPPTSEGKRMSADMSEIEARIAATTAYSKPKRGHRKTASFGNILDVPEIVISGNGQPRRRSIQDLTVTGTEPGQVSSRSSSPSVRMITTSGPTSEKPTRSHPWTPDDSTDTNGSDNSIPMAYLTLDHQLQPLAPCPNSKESMAVFEQHCKMAQEYMKVQTEIALLLQRKQELVAELDQDEKDQQNTSRLVQEHKKLLDENKSLSTYYQQCKKQLEVIRSQQQKRQGTS
modifications: phosphorylated (activated state; site not given)
notes: Endogenous protein immunoprecipitated with a p-TAK1 antibody from PSC27 cell lysates; also called p-TAK1
